From patent publication US20190031762A1, “POSTERIOR OCULAR FIBROSIS INHIBITION BY ANTAGONIZING PLACENTAL GROWTH FACTOR” (THROMBOGENICS NV, priority 2016, published 2019)

Key:
human PlGF = target: T1, human PlGF (Homo sapiens, UniProt P49763); assay: Binding of antibody to human PlGF
T1 sequence (P49763 19-131 limits assumed): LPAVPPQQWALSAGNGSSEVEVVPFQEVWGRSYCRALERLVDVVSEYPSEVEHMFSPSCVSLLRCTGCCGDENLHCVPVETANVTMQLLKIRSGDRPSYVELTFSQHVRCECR

mouse CNV model = assay: Posterior ocular collagen deposition (Col1a staining) in laser-induced CNV mouse model; assay type: in vivo; settings: repeat experiment (FIG. 4), day 30, 3.1 μg/eye, compared to PBS
Procedure: Mice (C57BL/6J, male, 8-10 weeks old) were anesthetized by intraperitoneal injection (135 μL) of a mixture of ketamine hydrochloride (Anesketin; […]) and medetomidine (Domitor; 1 mg/mL) and their pupils dilated with one eye drop (50 μL) Tropicamide (Tropicol™; 5 mg/mL; Thea, Research Papers Clermont-Ferrand, France). Three laser burns were placed in one eye with a green laser at the 9, 12, 3 o'clock positions around the optic disk using a slit lamp delivery system with a hand-held cover slide as a contact lens moisturized with Genteal Gel™ (Novartis, Vilvoorde, Belgium). Each spot was placed with a spot size of 100 μm, laser duration of a 50 milliseconds and a power of 320 mW. […] Finally, 300 μL atipamezole (Antisedan; 5 mg/mL) was injected intraperitoneally to reverse the effect of medetomidine and to reduce sedation time.
At different time points after lasering, the compounds were administered intravitreally (IVT). The animal was anesthetized with a mixture of ketamine hydrochloride/medetomidine and the eye was treated with a drop of 0.4% oxybuprocaine (Unicaine; Thea Pharma). Intravitreal injections (1 μL) to one eye according to Tables 1 to 3 were performed by using an analytic science syringe (SGE Analytic Science) and glass capillaries with a diameter of 50-70 μm at the end, controlled by the UMP3I Microsyringe Injector and Micro4 Controller (all from World Precision Instruments Inc., Hertfordshire, UK). Finally, atipamezole (Antisedan) was injected intraperitoneally to reverse the effect of medetomidine and to reduce sedation time.
To analyze the in vivo efficacy of the different compounds, the retina was removed from the dissected posterior segments. These posterior eye cups, which included retinal pigment epithelium (RPE), the choroid and the sclera were stored in phosphate buffered saline (PBS).
To stain for the presence of collagen type 1 (Colla) protein in the laser spots at day 30 after laser, a rabbit anti-collagen antibody (Abcam, 1/270) was used overnight, diluted in Tris-buffered saline (TBS)-Triton 0.5% (v/v) at 4° C. The following day, the tissues were incubated for 2 hours with goat anti rabbit IgG Alexa Fluor 555 (Life Technologies; A-21428), diluted 1/100 in TBS-Triton 0.3% (v/v) at 4° C. The flat mounts of the posterior eye cups were mounted with Prolong Gold with 4′,6-diamidino-2-phenylindole (DAPI, Molecular Probes). Images were obtained using a microscope with a digital camera (Axiocam MrC5; Carl Zeiss, Oberkochen, Germany) at a magnification factor of 20. Morphometric analyses were performed using commercial software (Axiovision; Zeiss, Oberkochen, Germany). The density of collagen deposition was determined by calculating the Colla-positive area as a proportion of the total lesion.
The mouse CNV model as described in Example 2.1 was used. At different time points after lasering, compounds were administered intraperitoneally (IP), or intravitreally (IVT), as indicated in Table 3.

murine PlGF = target: T2, murine PlGF (Mus musculus, UniProt P49764); assay: Binding of antibody to murine PlGF
T2 sequence (P49764 19-158): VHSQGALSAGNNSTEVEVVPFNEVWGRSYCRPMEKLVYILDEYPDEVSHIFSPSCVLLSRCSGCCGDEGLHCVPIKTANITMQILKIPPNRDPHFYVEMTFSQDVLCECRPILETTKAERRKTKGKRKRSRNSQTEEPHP

binding to human PlGF, in words (human PlGF): binds
affinity for murine PlGF relative to human PlGF, in words (murine PlGF): lower affinity
B1: 16D3: murine anti-human PlGF-neutralizing antibody, CDRs SEQ ID NOs:1-6; hybridoma deposit LMBP 6399CB (antibody, V domains shown)
VH: QVQLQQSGAELVKPGASVKISCKASGYTFTDYYINWVKLAPGQGLEWIGWIYPGSGNTKYNEKFKGKATLTIDTSSSTAYMQLSSLTSEDTAVYFCVRDSPFFDYWGQGTLLTVSS
VL: DIVLTQSPDSLAVSLGERVTMNCKSSQSLLNSGMRKSFLAWYQQKPGQSPKLLIYWASTRESGVPDRFTGSGSGTDFTLTISSVQAEDVAVYYCKQSYHLFTFGSGTKLEIK
modifications: humanized heavy chain amino acid sequence of neutralizing anti-PlGF antibody; humanized light chain amino acid sequence of neutralizing anti-PlGF antibody
notes: hybridoma deposit LMBP 6399CB
effect on collagen deposition / fibrosis, in words (mouse CNV model): significantly decreased collagen deposition
reduction in collagen deposition (Col1a) (mouse CNV model; IVT D0, 4, 10 and 20): 34%
